In patent US20170305994A1 (Novo Nordisk, published 2017):
Positions count from the first letter of the chain named. Names may count otherwise.

Legend:
[1] = target: T1, human DR3 with the death domain deleted (ΔM339-P417 of SEQ ID NO:1), expressed on CHOK1SV cells (human, UniProt Q93038 25-338); experiment: flow cytometry competition: Fab vs TL1A on hDR3-expressing CHO cells
T1 construct: also called truncated DR3; hDR3 expressing CHO cells
T1 sequence: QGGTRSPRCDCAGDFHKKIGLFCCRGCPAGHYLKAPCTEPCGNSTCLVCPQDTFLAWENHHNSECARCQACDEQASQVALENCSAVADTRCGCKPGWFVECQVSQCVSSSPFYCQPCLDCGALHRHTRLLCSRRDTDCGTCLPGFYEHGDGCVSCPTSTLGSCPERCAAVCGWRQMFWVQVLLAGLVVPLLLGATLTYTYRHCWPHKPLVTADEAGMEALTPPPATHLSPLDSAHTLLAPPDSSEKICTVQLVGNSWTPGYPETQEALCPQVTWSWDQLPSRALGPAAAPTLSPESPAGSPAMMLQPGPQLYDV

human DR3 L45V = target: T2, human DR3 L45V (human, UniProt Q93038 25-417); experiment: cell-based or functional assay
T2 sequence: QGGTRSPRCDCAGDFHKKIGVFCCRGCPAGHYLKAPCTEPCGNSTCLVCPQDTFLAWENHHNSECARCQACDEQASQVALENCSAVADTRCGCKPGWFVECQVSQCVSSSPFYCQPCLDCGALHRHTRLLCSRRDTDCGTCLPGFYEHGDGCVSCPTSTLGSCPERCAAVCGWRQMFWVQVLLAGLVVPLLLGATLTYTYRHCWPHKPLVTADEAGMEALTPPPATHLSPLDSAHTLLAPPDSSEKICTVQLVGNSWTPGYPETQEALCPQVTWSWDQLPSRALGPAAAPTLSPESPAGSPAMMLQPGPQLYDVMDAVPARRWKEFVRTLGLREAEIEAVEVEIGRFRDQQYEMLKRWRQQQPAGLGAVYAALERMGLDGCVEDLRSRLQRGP

human DR3 I43N = target: T3, human DR3 I43N (human, UniProt Q93038 25-417); experiment: cell-based or functional assay
T3 sequence: T2 sequence with I19N, V21L

[2] = target: T4, human DR3 (full length, on cells) (human, UniProt Q93038 25-417); experiment: cell-based or functional assay
T4 sequence: T2 sequence with V21L

human DR3 I43N/L45V = target: T5, human DR3 I43N/L45V (human, UniProt Q93038 25-417); experiment: cell-based or functional assay
T5 chain: T2 sequence with I19N

[3] = target: T4, human DR3 (full length, on cells); experiment: cell-based or functional assay; remark: listed apart in the source
[4] = target: T6, cynomolgus DR3 (on HEK293 reporter cells) (cynomolgus, UniProt A0A2K5WJ09 98-464); experiment: cell-based or functional assay
T6 sequence: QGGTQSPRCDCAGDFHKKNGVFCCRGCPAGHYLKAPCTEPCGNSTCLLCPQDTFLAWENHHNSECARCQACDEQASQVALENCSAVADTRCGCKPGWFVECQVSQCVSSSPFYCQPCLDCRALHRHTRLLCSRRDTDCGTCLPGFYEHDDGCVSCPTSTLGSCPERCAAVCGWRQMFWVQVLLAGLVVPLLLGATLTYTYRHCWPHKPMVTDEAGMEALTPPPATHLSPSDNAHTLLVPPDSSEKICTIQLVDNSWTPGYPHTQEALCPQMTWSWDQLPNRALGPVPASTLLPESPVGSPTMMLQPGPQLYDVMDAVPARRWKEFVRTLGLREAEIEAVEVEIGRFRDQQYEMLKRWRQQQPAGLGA

IC50 of Fab upon stimulation by TL1A, transient reporter (human DR3 L45V): 2 nM | IC50 of Fab upon stimulation by TL1A, transient reporter (human DR3 I43N): 68 nM | IC50 of Fab upon stimulation by TL1A, transient reporter [2]: 0.645 nM | IC50 of Fab upon stimulation by TL1A, transient reporter (human DR3 I43N/L45V): 149 nM | IC50, TNFalpha inhibition, TL1A-activated CD4+ T cells, donor 1 [3]: 0.3 nM | IC50, TNFalpha inhibition, TL1A-activated CD4+ T cells, donor 2 [3]: 0.17 nM | IC50, TNFalpha inhibition, average (n 3) [3]: 0.189 nM | max % inhibition of TNFalpha, donor 1 [3]: 92.2% | max % inhibition of TNFalpha, donor 2 [3]: 82.3% | IC50 at 40 ng/ml TL1A, Lyda20 reporter cells [4]: 628 nM
B1: 0228 (humanized Fab of 27F44, IgG4, hz0072VH S49A / hz0072VL) (Fab, V domains shown)
VH: EVQLVESGGGLVQPGGSLRLSCAASGFTFSNYDMSWVRQATGKGLEWVAAFSSDGYTFYPGSVKGRFTISRENAKNSLYLQMNSLRAGDTAVYYCARHADYANYPVMDYWGQGTLVTVSS
VL: DIQMTQSPSSLSASVGDRVTITCRASKSVSTSGYSYMHWYQQKPGKAPKLLIYLASNLESGVPSRFSGSGSGTDFTLTISSLQPEDFATYYCQHSRELPLTFGGGTKVEIKR
notes: IgG4-Cys, hz (humanized IgG4 Fab with the hinge cysteine kept)
IC50 [1]: 0.484 nM | max percentage inhibition [1]: 78%
